Laboratory results from article PMC9437119 (The Journal of Cell Biology, 2022).
Several values for one entry are separate records, joined by “and”; a condition that tells them apart may be missing. Equal values may be shown once.

B1: myc-tagged human Mid51 (WT) (natural protein, UniProt Q9NQG6 1-463, looked up)
chain: MAGAGERKGKKDDNGIGTAIDFVLSNARLVLGVGGAAMLGIATLAVKRMYDRAISAPTSPTRLSHSGKRSWEEPNWMGSPRLLNRDMKTGLSRSLQTLPTDSSTFDTDTFCPPRPKPVARKGQVDLKKSRLRMSLQEKLLTYYRNRAAIPAGEQARAKQAAVDICAELRSFLRAKLPDMPLRDMYLSGSLYDDLQVVTADHIQLIVPLVLEQNLWSCIPGEDTIMNVPGFFLVRRENPEYFPRGSSYWDRCVVGGYLSPKTVADTFEKVVAGSINWPAIGSLLDYVIRPAPPPEALTLEVQYERDKHLFIDFLPSVTLGDTVLVAKPHRLAQYDNLWRLSLRPAETARLRALDQADSGCRSLCLKILKAICKSTPALGHLTASQLTNVILHLAQEEADWSPDMLADRFLQALRGLISYLEAGVLPSALNPKVNLFAELTPEEIDELGYTLYCSLSEPEVLLQT
notes: Mid51 (MIEF1), human, outer mitochondrial membrane protein; plasmid generated using VectorBuilder; Seen as monomer, dimer, tetramer and HMW species on the IP immunoblot; also called MIEF1; WT Mid51; source: HeLa cells, transfected for 24 h, in lysate
B2: myc-tagged human Mid51(Y240N) (natural protein, UniProt Q9NQG6 1-463, looked up)
chain: MAGAGERKGKKDDNGIGTAIDFVLSNARLVLGVGGAAMLGIATLAVKRMYDRAISAPTSPTRLSHSGKRSWEEPNWMGSPRLLNRDMKTGLSRSLQTLPTDSSTFDTDTFCPPRPKPVARKGQVDLKKSRLRMSLQEKLLTYYRNRAAIPAGEQARAKQAAVDICAELRSFLRAKLPDMPLRDMYLSGSLYDDLQVVTADHIQLIVPLVLEQNLWSCIPGEDTIMNVPGFFLVRRENPENFPRGSSYWDRCVVGGYLSPKTVADTFEKVVAGSINWPAIGSLLDYVIRPAPPPEALTLEVQYERDKHLFIDFLPSVTLGDTVLVAKPHRLAQYDNLWRLSLRPAETARLRALDQADSGCRSLCLKILKAICKSTPALGHLTASQLTNVILHLAQEEADWSPDMLADRFLQALRGLISYLEAGVLPSALNPKVNLFAELTPEEIDELGYTLYCSLSEPEVLLQT
notes: Mid51 (MIEF1), human, variant Y240N linked to dominant optic atrophy; plasmid generated using VectorBuilder; source: HeLa cells, transfected for 24 h, in lysate

Target: the molecule itself
Assay: SDS-resistant oligomers on SDS-PAGE immunoblot of the immunoprecipitate; anti-myc immunoprecipitate of the Mid51/Fis1 complex from HeLa lysate heated 20 min at 55°C, 4-20% Tris-Glycine SDS-PAGE; SDS-resistant complexes detected with anti-myc (Mid51 species) or anti-Flag (Fis1 species); species normalized to monomer

Protein | stoichiometry N
B1 | 2 and 4
B2 | 2 and 4
